Experimental data taken from IntAct's records for PubMed 17036044.

B1: Serine/arginine-rich splicing factor 3 (Homo sapiens), P84103 (parent)
chain: MHRDSCPLDCKVYVGNLGNNGNKTELERAFGYYGPLRSVWVARNPPGFAFVEFEDPRDAADAVRELDGRTLCGCRVRVELSNGEKRSRNRGPPPSWGRRPRDDYRRRSPPPRRRSPRRRSFSRSRSRSLSRDRRRERSLSRERNHKPSRSFSRSRSRSRSNERK
partner: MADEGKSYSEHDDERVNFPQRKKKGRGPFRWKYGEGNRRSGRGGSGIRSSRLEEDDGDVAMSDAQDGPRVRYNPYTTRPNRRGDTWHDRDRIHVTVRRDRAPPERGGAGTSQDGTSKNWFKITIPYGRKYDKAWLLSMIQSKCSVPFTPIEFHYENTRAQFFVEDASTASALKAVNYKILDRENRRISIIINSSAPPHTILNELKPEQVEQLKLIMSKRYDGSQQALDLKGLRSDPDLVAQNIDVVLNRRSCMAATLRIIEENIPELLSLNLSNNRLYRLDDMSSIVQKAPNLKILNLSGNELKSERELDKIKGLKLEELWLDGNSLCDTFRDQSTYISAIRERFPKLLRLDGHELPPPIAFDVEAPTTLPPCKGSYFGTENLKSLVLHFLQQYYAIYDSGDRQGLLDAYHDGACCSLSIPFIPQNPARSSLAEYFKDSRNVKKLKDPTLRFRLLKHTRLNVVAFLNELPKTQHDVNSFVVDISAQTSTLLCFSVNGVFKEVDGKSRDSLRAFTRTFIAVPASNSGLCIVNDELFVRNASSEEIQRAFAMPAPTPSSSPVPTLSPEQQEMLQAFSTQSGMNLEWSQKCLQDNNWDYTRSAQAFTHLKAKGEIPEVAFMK
B2: Serine/arginine-rich splicing factor 7 (Homo sapiens), Q16629 (parent)
chain: MSRYGRYGGETKVYVGNLGTGAGKGELERAFSYYGPLRTVWIARNPPGFAFVEFEDPRDAEDAVRGLDGKVICGSRVRVELSTGMPRRSRFDRPPARRPFDPNDRCYECGEKGHYAYDCHRYSRRRRSRSRSRSHSRSRGRRYSRSRSRSRGRRSRSASPRRSRSISLRRSRSASLRRSRSGSIKGSRYFQSPSRSRSRSRSISRPRSSRSKSRSPSPKRSRSPSGSPRRSASPERMD
partner: B1 partner

Variants of: B1
Settings: with nxf1_human NXF1, Q9UBU9

Variant	effect of a mutation on the interaction
R88E	disrupting interaction

Variants of: B1
Settings: with nxf1_human NXF1, Q9UBU9
Remark: another data set of the same source

Variant	effect of a mutation on the interaction
R90E	disrupting interaction

Variants of: B1
Settings: with nxf1_human NXF1, Q9UBU9
Remark: another data set of the same source

Variant	effect of a mutation on the interaction
R86E	disrupting interaction

Variants of: B2
Settings: with nxf1_human NXF1, Q9UBU9

Variant	effect of a mutation on the interaction
R97E	disrupting interaction
R98E	disrupting interaction

Variants of: B2
Settings: with nxf1_human NXF1, Q9UBU9
Remark: another data set of the same source

Variant	effect of a mutation on the interaction
R87E	disrupting interaction
R88E	disrupting interaction
